{"source": "patent US10864285B2", "about": "“Methods for the diagnosis and treatment of Sjögren's syndrome” (The U.S.A., as represented by the Secretary, Department of …, priority 2012, dated 2020)", "molecules": {"B1": {"name": "BMP6: A member of the TGF-β superfamily of growth factors; added to cultured cells at 6 ng/ml (protein, UniProt P22004 375-513, looked up)", "Bone morphogenetic protein 6": "SASSRRRQQSRNRSTQSQDVARVSSASDYNSSELKTACRKHELYVSFQDLGWQDWIIAPKGYAANYCDGECSFPLNAHMNATNHAIVQTLVHLMNPEYVPKPCCAPTKLNAISVLYFDDNSNVILKKYRNMVVRACGCH"}}, "key": {"[1]": {"tested_on": "Caco-2 cells", "test": "Trans epithelial resistance (TEER) of cell monolayers in transwells", "format": "cell-based", "details": "Caco-2 cells grown in 6 ng/ml BMP6 vs without BMP6", "procedure": "(§1) Trans epithelial electrical resistance (TER) of all cell types was measured using a using a volt/ohm meter (Millicel; Millipore, Mass., USA) in an electrode chamber (EVOV; WPI, FL, USA). Cells were allowed to establish monolayers on 0.4-Am pore size polycarbonate filters in 6-mm Transwell chambers (Costar, Mass., USA).\n(§2) Tight junction structures are important in the correct functioning of the salivary glands. […] To determine if BMP6 expression could alter epithelial integrity, monolayers of three well differentiated epithelia (SMEI, Caco-2, and MDCK1 cells) grown in the presence of 6 ng/ml BMP6 in transwells were tested for changes in trans epithelial resistance (TEER) compared with cells grown without BMP6 (FIG. 7A). […] BMP6 expression also changed the electrical potential of the glands as well (FIG. 7A)."}, "[2]": {"tested_on": "MDCK1 cells", "test": "Trans epithelial resistance (TEER) of cell monolayers in transwells", "format": "cell-based", "details": "MDCK1 cells grown in 6 ng/ml BMP6 vs without BMP6", "procedure": "as §1, §2"}, "[3]": {"tested_on": "SMEI cells", "test": "Trans epithelial resistance (TEER) of cell monolayers in transwells", "format": "cell-based", "details": "SMEI cells grown in 6 ng/ml BMP6 vs without BMP6", "procedure": "as §1, §2"}, "[4]": {"tested_on": "SMG ducts of mice", "test": "Electrical potential across the duct of the SMG", "format": "in vivo, mouse", "details": "mice transduced with 10^11 particles of AAV5 expressing BMP6, vs GFP control mice", "from_the_text": "To measure the electrical potential (EP) across the duct of the SMGs, a procedure was developed to measure the EP by cannulating the duct and inserting the electrode in the cannula. The high impedance electrode was attached to an electrometer (model FD223, World Precision Instrument, Sarasota, Fla.). The electrical potential of the duct was read by placing the ground electronic rode on the adjacent tissues to the opening of the ducts.\nTo measure electrophysiologic parameters associated with Sjögren's syndrome, a measurement circuit 20 (see FIG. 10) was established between a detection electrode 22 placed in a salivary gland duct and a reference electrode 24 placed in electrical contact with adjacent oral mucosa. In this particular example, the electrical potential was measured across the ducts of SMGs. A procedure was developed to measure TEER by cannulating the electrode of a transmeter (model FD223, World Precision Instrument, Sarasota, Fla.) in the ducts of SMGs of mice (FIG. 10). […]\nThe detecting electrode included a cannula 26 placed on a 1 mL syringe 28, which was a fixed supporter. […] The trans-epithelial potential was read by placing the ground electrode on the tissues adjacent to the opening of the ducts. Background potential was determined by reading the potential when the detecting electronic rode was placed in saline only."}, "[5]": {"tested_on": "salivary and lacrimal glands of mice", "test": "Histopathological scoring for lymphocytic infiltrates (focus score)", "format": "in vivo, mouse", "details": "20 weeks post cannulation, vs control mice, statistically significant", "procedure": "Submandibular glands (SMG) were removed for histological analysis from mice at the time of sacrifice, and placed O/N in 10% formalin. After fixation, the tissues were dehydrated in an ethanol series and embedded in paraffin according standard techniques. Sections were cut at 5 μm and subsequently stained with hematoxylin and eosin (H&E). Histopathological scoring was performed using the focus score. A focus is an aggregate of 50 or more mononuclear cells per 4 mm^2. Foci were counted through the whole section, in a total of three sections (50 μm between sections) per SG using a 40× magnification. The results were calculated and expressed as foci per 4 mm^2. The focus scores were assessed blindly by two different examiners and the mean scores were determined.\nA hallmark of pSS is lymphocytic infiltration in the […] glands, especially salivary and lacrimal glands. To determine the effect of elevated BMP6 on the local immune environment of the salivary gland, histopathological scoring for lymphocytic infiltrates was performed on both salivary and lacrimal glands 20 weeks post cannulation. […] Furthermore, no changes in circulating autoantibodies to anti-Ro/SSA or anti-La/SSB were detected in the animals expressing BMP6 in the salivary glands compared with control mice (FIGS. 5C and 5D)."}, "[6]": {"tested_on": "HSG cells (a human salivary gland cell line)", "test": "Regulated volume decrease (RVD) after hypotonic solution in HSG cells", "format": "cell-based", "details": "6 ng/ml of BMP6 for 4 days", "procedure": "Regulated volume decrease was measured as described previously (Liu et al., J Biol Chem 281:15485-15495, 2006). Briefly SMGs from mice were removed at the end of the study and prepared as described (Liu et al., J Biol Chem 281:15485-15495, 2006). Cells were then loaded with the fluoroprobe calcein (Molecular Probes, Inc., Eugene, Oreg.) and excited at 490 nm. Emitted fluorescence was measured at 510 nm. In situ calibration of the dye was performed. Origin 7.5 (OriginLab, Northampton, Mass.) was used for data analysis and display. Significant difference between individual groups was tested by using analysis of variance.\nAlthough no increase in a number of immunological factors was detected, it is not possible to rule out the possibility that BMP6 expression is a trigger for expression of another soluble factor and is not directly causing the loss of RVD in isolated salivary gland cells from the treated mice. To test for a direct effect of BMP6 on RVD, HSG cells (a human salivary gland cell line) were treated with 6 ng/ml of BMP6 for 4 days and then assayed for a loss in RVD activity (FIG. 8B). […] To date little is known about the role of BMPs in SS and the present work represents the first association."}}, "data": [{"molecule": "B1", "values": [{"measurement": "Change in TEER", "setting": "[1]", "value": "statistically significant increase in TEER"}, {"measurement": "Change in TEER", "setting": "[2]", "value": "statistically significant increase in TEER"}, {"measurement": "Change in TEER", "setting": "[3]", "value": "statistically significant increase in TEER"}, {"measurement": "Electrical potential in intact salivary glands", "setting": "[4]", "value": "increase in electrical potential"}, {"measurement": "Increase in focus score in the salivary glands", "setting": "[5]", "value": "> 2", "unit": "fold"}, {"measurement": "RVD activity of HSG cells", "setting": "[6]", "value": "loss of volume decrease was detected"}]}]}
